Consider 30 sequences from the nanobody polyreactivity screen of Harvey et al. (2022).

The nature of the data set: yeast display, Sf9 membrane polyspecificity reagent, FACS + sequencing; frameworks hold sequencing errors. The essentials:
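Using colony PCR, genes from sorted yeast display clones were amplified, then sequenced on MiSeq at 2 × 250 and filtered by CDR length. The clones had been stained with 10% biotinylated, detergent-solubilized Sf9 membrane reagent for 1 hour at 4 °C and sorted by FACS into low and high (top ~1%) gates on anti-HA and streptavidin fluorescence. Polyreactivity labels come from the gate of origin.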
On to “QVQLVESGGGLVQAGGSLRLSCAASGRTFFYNAMAWYRQAPGKERESTYYADSVKGRFTISRDNAKNTVYLQMNSLIPEDTAVSYCAAGTAYVAYEGDKGDYCGQGTQVTVSS”, for which the “polyreactivity (PSR sort gate)” value is given as “low polyreactivity”.

“QVQLVESGGGLVQAGGSLRLSCAASGRTFFYNAMGWYRQAPGKERELVAAISGRGGRTYYADSVKGRFTISRDNAKNTVHLQMNSLKPEDTAVYYCAADAGPLRYDYWGQGTQVTVSS”: the “polyreactivity (PSR sort gate)” value is on record as “high polyreactivity”. In the case of “QVQLVESGGGLVQAGGSLRLSCAASGRTFFYNAMGWYRQAPGKERELVAAISSGGGSTYYADSVKGRFTISRDNAKNTVYLQMNSLKPEDTAVYYCNAYKGQTGGGGRYGYWGQGTQVTVSS”, the “polyreactivity (PSR sort gate)” value is on record as “high polyreactivity”. Take “QVQLVESGGGLVQAGGSLRLSCAASGRTFFYYAMGWYRQAPGKERELVAAISGRGGRTYYADSVKGRFTISRDNAKNTVYLQMNSLKPEDTAVYYCNTRGTRIASGHYYWGQGTQVTVSS”: the “polyreactivity (PSR sort gate)” value is reported as “high polyreactivity”. For the sequence “QVQLVESGGGLVQAGGSLRLSCAASGRTFGANAMGWYRQAPGKERELVAAISSSDDSTYYADSVKGRFTISRDNAKNTVYLQMNSLKPEDTAVYYCAAEDVYPQLDYWGQGTLVTVSS”, the “polyreactivity (PSR sort gate)” value is given as “low polyreactivity”. “QVQLVESGGGLVQAGGSLRLSCAASGRTFGAYSMGWYRQAPGKERELVASISRSGGSTYYADSVKGRFTISRDNAKNTVYLQMNSLKPEETAVYYCAARVYRYGAMDYWGQGTQVTVSS”: the “polyreactivity (PSR sort gate)” value is “high polyreactivity”. On to “QVQLVESGGGLVQAGGSLRLSCAASGRTFGAYTMGWYRQAPGKERELVAAINWSGGDTYYADSVKGRFTISRDNAKNTVYLQMNSLKPEDTAVYYCNAEPRYGTYDYWGQGTQVTVSS”, for which the “polyreactivity (PSR sort gate)” value is “low polyreactivity”. Consider “QVQLVESGGGLVQAGGSLRLSCAASGRTFGDYAMGWSRQAPGKERELVAAIDVDGGSTYYADSVKGRFTISRDNAKNTVYLQMNSLKPEDTAVYYCNAQAPYWFSFYSDHKYDYWGQGTQVTVSS”, for which the “polyreactivity (PSR sort gate)” value is on record as “low polyreactivity”. Regarding “QVQLVESGGGLVQAGGSLRLSCAASGRTFGDYAMGWYRQAPGKERELVAAISKSGGITYYADSVKGRFTISRDNAKNTVYLQMNSLKPEDTAVYYCNADGSPFYYSGYDYWGQGTQVTVSS”, the “polyreactivity (PSR sort gate)” value is given as “high polyreactivity”. Under “QVQLVESGGGLVQAGGSLRLSCAASGRTFGDYAMGWYRQEPGKERELVAGITGRDSTNYADSVKGRFTISRDNAKNTVYLQMNSLIREDTAVYYCNADFWYTDISYGLATYDYWGQGTQVTVSS” stands “high polyreactivity”; under “QVQLVESGGGLVQAGGSLRLSCAASGRTFGGYAMGRYRQAPGKDRQLVASISWSGGSTYYADSVKGRFTISRDNAKNTVYLQMNSLKPEDTAVYYCAARPYLSRSTRMDYWGQGTQVTVSS”, “low polyreactivity”; under “QVQLVESGGGLVQAGGSLRLSCAASGRTFGGYAMGWYRQAPGKERELVAAIRRSGGSTYYADSVKGRFTISRDNAKNTVYLQMNSLKPEDTAVYYCNVLRFSTGGYRYVYDYDYWGQGTQVTVSS”, “high polyreactivity”. Consider “QVQLVESGGGLVQAGGSLRLSCAASGRTFGGYAMGWYRQAPGTERELVAAIRSRGGRTYYADSVKGRFTISRDNAKKSVYLQMNSLKPEDTAVYYCATYGNKWGEDYWGQGTQVTVSS”, for which the “polyreactivity (PSR sort gate)” value is “high polyreactivity”.

As for “QVQLVESGGGLVQAGGSLRLSCAASGRTFGGYTMGWYRKAPGKERELVAAISKRGGSTYYADSVKGRFTISRDNAKNTVYLQMNSLKPEDTAVYYCARDVRTVIVSTGYDYWGQGTQVTVSS”, the “polyreactivity (PSR sort gate)” value is “high polyreactivity”. The result for “QVQLVESGGGLVQAGGSLRLSCAASGRTFGGYTMGWYRQAPGKERALVAAIRWSGGRTYYADSVKGRFTISRDNAKNTVYLQMNSLKPEDTAVYYCNARYVFPYYWGQGTQVTVSS” reads “high polyreactivity”.

For the sequence “QVQLVESGGGLVQAGGSLRLSCAASGRTFGGYTMGWYRQAPGKERELVAAITGSGSNTYYADSVKGRFTISRDNAKNTVYLQMNSLKPEDTAVYYCAAPYSYRTWYPYGYWGQGTQVTVSS”, the “polyreactivity (PSR sort gate)” value is recorded as “high polyreactivity”. As to “QVQLVESGGGLVQAGGSLRLSCAASGRTFGIYAMGWYRQAPGKERELVASISWSGGRTYYADSVKGRFTLSRDNAKNTVYLQMNSLKPEDTAVYYCAAYGVYYPRSWQYFDWYGYWGQGTQVTVSS”, the “polyreactivity (PSR sort gate)” value is on record as “high polyreactivity”. Take “QVQLVESGGGLVQAGGSLRLSCAASGRTFGIYAMGWYRQAPGTERQMVADITSGGDTYYADSVKGRFTISRDNAKNTVYLQMNSLKPEDTAVYYCAADIYPDWIYLLYGYWGQGTQVNVSS”: the “polyreactivity (PSR sort gate)” value was “low polyreactivity”. In the case of “QVQLVESGGGLVQAGGSLRLSCAASGRTFGIYTMGWYRQAPGKERKLVAAISKRGSSTYYADSVKGRFTISRDNAKNTVYLQMNSLKPEDTAVYYCNARSWYIRGSQEYYYWGQGTQVTVSS”, the “polyreactivity (PSR sort gate)” value was “high polyreactivity”. For the sequence “QVQLVESGGGLVQAGGSLRLSCAASGRTFGKNAMGWYRPAPGKERELVAAIRYRTGSTYYADSVKGRFTISRDNAKNTVYLQMNSLKPEDTAVYYCAKVGSSPLYWGQGTHVTVSS”, the “polyreactivity (PSR sort gate)” value is “high polyreactivity”. With “QVQLVESGGGLVQAGGSLRLSCAASGRTFGKNAMGWYRQAPGKERELVAAISWSGGRTYYADSVKGRFTISRDNAKNTVYLQMNSLKPEDTAVYYCATASYRNPSDYWGQGTQVTVSS”, the “polyreactivity (PSR sort gate)” value was “high polyreactivity”. Consider “QVQLVESGGGLVQAGGSLRLSCAASGRTFGKYAMGWYRQAPGKERELVAGISSRGGSTYYADSVKGRFTISRDNAKNTVYLQMNSLKPEDTAVYYCAKRPLTSNASQGDYWGQGTQVTVSS”, for which the “polyreactivity (PSR sort gate)” value is given as “high polyreactivity”. On to “QVQLVESGGGLVQAGGSLRLSCAASGRTFGKYAMGWYRQAPGKERELVATISLSGGSTYYADSVKGRFTISRDNAKNTVYLQMNSLKPEDTAVYYCAARVYTYYYDLHKRYYWGQGTQVTVSS”, for which the “polyreactivity (PSR sort gate)” value is reported as “high polyreactivity”. As to “QVQLVESGGGLVQAGGSLRLSCAASGRTFGLNAMGWYRQAPGKDRELVAAISSSGGSTYYADSVKGRFTISRDNAKNTVYLQKNSLKPEDTAVYYCAKGLYRYGTAYYYWGQGTQVTVSS”, the “polyreactivity (PSR sort gate)” value is “high polyreactivity”. For the sequence “QVQLVESGGGLVQAGGSLRLSCAASGRTFGLNAMGWYRQAPGKERELVAAIDWRGVNTYYADSVKGRFTISRDNAKNTVYLQMNSLKPEDTAVYYCNARAYGRYYWGQGTQVTVSS”, the “polyreactivity (PSR sort gate)” value is listed as “high polyreactivity”. For the sequence “QVQLVESGGGLVQAGGSLRLSCAASGRTFGLYAMGWYRQAPGKETELVAAISSSGGSTYYADSVKGRFTISRDNAKNTVYLQMNSLKPEDTAVYYCAKYRRVGYLYDYWGQGTQVTVSS”, the “polyreactivity (PSR sort gate)” value is on record as “high polyreactivity”. Regarding “QVQLVESGGGLVQAGGSLRLSCAASGRTFGNNAMGWYRQAPGKEREFVAAITSRGGSTYYADSVKGRFTISRDNAKNTVYLQINSLKPEDTAVYYCNREYQLPSQRTEHYYWGQGTQVTVSS”, the “polyreactivity (PSR sort gate)” value is given as “low polyreactivity”. The result for “QVQLVESGGGLVQAGGSLRLSCAASGRTFGNYAMGWYRQAPGKERELVAAISSGRSTNYADSVKRRFTISRDNGKNTVYLQMNSLKPEDTAVYYCNADWGFPDVKETGVRFDYWGQGTQVTVSW” reads “low polyreactivity”; that for “QVQLVESGGGLVQAGGSLRLSCAASGRTFGPNGMGWYRQAPGKERELVAAITRRGGSTYYADSVKGRFTISRDNEKNTVYLQMNSLKPEDTAVYYCAAYSSWGGFDYWGQGTQVTVSS”, “low polyreactivity”; that for “QVQLVESGGGLVQAGGSLRLSCAASGRTFGPYAKGWYRQAPGKERELVAAITDTGSGTFYADSVKGRFTISRDNAKNTVYFQMNSLKPEDTAVYYCNAVRKYWGQGTEVTVSS”, “low polyreactivity”.
